Reference: article PMC6222095

Biological target: T1, complement factor H, homozygous Tyr-402/Val-62 allotype (human), P08603
T1 chain: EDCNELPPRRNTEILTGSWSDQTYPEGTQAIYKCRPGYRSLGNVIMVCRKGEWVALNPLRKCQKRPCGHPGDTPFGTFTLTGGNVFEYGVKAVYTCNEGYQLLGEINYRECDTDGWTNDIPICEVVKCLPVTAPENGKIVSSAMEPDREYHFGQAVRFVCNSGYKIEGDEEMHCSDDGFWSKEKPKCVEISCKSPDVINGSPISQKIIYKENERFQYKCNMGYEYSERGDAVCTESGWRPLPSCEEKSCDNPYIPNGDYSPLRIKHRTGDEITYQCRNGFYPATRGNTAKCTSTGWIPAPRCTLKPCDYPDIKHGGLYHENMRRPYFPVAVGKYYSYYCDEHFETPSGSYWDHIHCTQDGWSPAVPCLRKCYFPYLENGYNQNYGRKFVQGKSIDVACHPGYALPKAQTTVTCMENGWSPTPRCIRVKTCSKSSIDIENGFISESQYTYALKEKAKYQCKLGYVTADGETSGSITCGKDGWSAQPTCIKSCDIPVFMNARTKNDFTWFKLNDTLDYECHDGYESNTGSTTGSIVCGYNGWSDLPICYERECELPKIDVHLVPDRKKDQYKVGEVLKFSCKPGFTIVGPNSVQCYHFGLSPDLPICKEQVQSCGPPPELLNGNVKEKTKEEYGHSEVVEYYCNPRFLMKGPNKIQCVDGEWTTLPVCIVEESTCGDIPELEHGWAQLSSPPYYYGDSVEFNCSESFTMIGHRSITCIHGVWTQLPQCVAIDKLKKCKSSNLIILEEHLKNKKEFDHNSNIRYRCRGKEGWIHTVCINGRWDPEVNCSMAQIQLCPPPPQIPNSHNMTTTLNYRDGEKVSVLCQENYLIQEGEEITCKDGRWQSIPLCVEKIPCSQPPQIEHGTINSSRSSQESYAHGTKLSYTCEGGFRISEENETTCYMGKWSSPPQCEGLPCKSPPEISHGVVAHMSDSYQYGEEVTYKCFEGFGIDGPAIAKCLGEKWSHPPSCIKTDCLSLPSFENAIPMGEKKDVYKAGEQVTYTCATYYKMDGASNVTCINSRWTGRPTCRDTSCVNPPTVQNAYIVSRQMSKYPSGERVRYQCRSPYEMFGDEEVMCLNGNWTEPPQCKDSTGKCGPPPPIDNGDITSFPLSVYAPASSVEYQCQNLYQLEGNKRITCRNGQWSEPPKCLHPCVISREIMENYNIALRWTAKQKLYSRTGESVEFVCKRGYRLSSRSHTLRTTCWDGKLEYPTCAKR
Test: SPR
Settings: natural protein, eight biantennary disialylated N-glycans, sites as printed: Asn-511, Asn-700, Asn-784, Asn-804, Asn-864, Asn-892, Asn-1011, Asn-1077, remark: other sources report otherwise

Kd: > 40 µM
B1: complement factor H, homozygous Tyr-402/Val-62 allotype, P08603 19-1231 (protein)
chain: EDCNELPPRRNTEILTGSWSDQTYPEGTQAIYKCRPGYRSLGNVIMVCRKGEWVALNPLRKCQKRPCGHPGDTPFGTFTLTGGNVFEYGVKAVYTCNEGYQLLGEINYRECDTDGWTNDIPICEVVKCLPVTAPENGKIVSSAMEPDREYHFGQAVRFVCNSGYKIEGDEEMHCSDDGFWSKEKPKCVEISCKSPDVINGSPISQKIIYKENERFQYKCNMGYEYSERGDAVCTESGWRPLPSCEEKSCDNPYIPNGDYSPLRIKHRTGDEITYQCRNGFYPATRGNTAKCTSTGWIPAPRCTLKPCDYPDIKHGGLYHENMRRPYFPVAVGKYYSYYCDEHFETPSGSYWDHIHCTQDGWSPAVPCLRKCYFPYLENGYNQNYGRKFVQGKSIDVACHPGYALPKAQTTVTCMENGWSPTPRCIRVKTCSKSSIDIENGFISESQYTYALKEKAKYQCKLGYVTADGETSGSITCGKDGWSAQPTCIKSCDIPVFMNARTKNDFTWFKLNDTLDYECHDGYESNTGSTTGSIVCGYNGWSDLPICYERECELPKIDVHLVPDRKKDQYKVGEVLKFSCKPGFTIVGPNSVQCYHFGLSPDLPICKEQVQSCGPPPELLNGNVKEKTKEEYGHSEVVEYYCNPRFLMKGPNKIQCVDGEWTTLPVCIVEESTCGDIPELEHGWAQLSSPPYYYGDSVEFNCSESFTMIGHRSITCIHGVWTQLPQCVAIDKLKKCKSSNLIILEEHLKNKKEFDHNSNIRYRCRGKEGWIHTVCINGRWDPEVNCSMAQIQLCPPPPQIPNSHNMTTTLNYRDGEKVSVLCQENYLIQEGEEITCKDGRWQSIPLCVEKIPCSQPPQIEHGTINSSRSSQESYAHGTKLSYTCEGGFRISEENETTCYMGKWSSPPQCEGLPCKSPPEISHGVVAHMSDSYQYGEEVTYKCFEGFGIDGPAIAKCLGEKWSHPPSCIKTDCLSLPSFENAIPMGEKKDVYKAGEQVTYTCATYYKMDGASNVTCINSRWTGRPTCRDTSCVNPPTVQNAYIVSRQMSKYPSGERVRYQCRSPYEMFGDEEVMCLNGNWTEPPQCKDSTGKCGPPPPIDNGDITSFPLSVYAPASSVEYQCQNLYQLEGNKRITCRNGQWSEPPKCLHPCVISREIMENYNIALRWTAKQKLYSRTGESVEFVCKRGYRLSSRSHTLRTTCWDGKLEYPTCAKR
